According to publication doi:10.1101/2024.12.30.630826:

Target: IGFBP3 (insulin-like growth factor-binding protein 3) (UniProt P17936 28-291)
Assay: SPR

Sequence of IGFBP3 (insulin-like growth factor-binding protein 3) (P17936 28-291): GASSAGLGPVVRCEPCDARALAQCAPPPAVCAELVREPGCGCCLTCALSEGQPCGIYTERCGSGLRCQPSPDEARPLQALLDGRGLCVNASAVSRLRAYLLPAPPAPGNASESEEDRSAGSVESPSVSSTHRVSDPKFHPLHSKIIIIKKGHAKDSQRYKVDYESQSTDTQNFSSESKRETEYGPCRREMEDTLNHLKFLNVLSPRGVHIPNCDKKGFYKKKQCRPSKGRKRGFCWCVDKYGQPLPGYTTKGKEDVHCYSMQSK

Binder	Kd [nM]
RGen-aptamer-9 (structured_RNA) RNA: UCCAGCACUCCACGCAUAACGAAGGGGGUUUGUUUGUUGGGGGGGGGGGAGGGGGAGUUAUGCGUGCUACCGUGAA	6.06
SELEX-derived wild-type aptamer (structured_RNA) RNA: UCCAGCACUCCACGCAUAACGGCGGUGGGUGGGUUGUUGUGGGAGGGGGAGGGGGAGUUAUGCGUGCUACCGUGAA	11.6
